Measured values reported in the supplement of paper PMC7877785.
± gives the uncertainty stated by the source.

Assay: self-splicing fitness, log relative to wild type (ln ratio); higher = more splicing; Tetrahymena group I intron in knt gene, E. coli kanamycin selection, DiMSum; sequences stand for … in CUCUCU…GGAGGGAAAAGUUAUCAGGCAUGCACCUGGUAGCUAGUCUUUAAACCAAUAGAUUGCAUCGGUUUAAAAGGCAAGACCGUCAAAUUGCGGGAAAGGGGUCAACAGCCGUUCAGUACCAAGUCUCAGGGGAAACUUUGAGAUGGCCUUGCAAAGGGUAUGGUAAUAAGCUGACGGACAUGGUCCUAACCACGCAGCCAAGUCCUAAGUCAACAGAUCUUCUGUUGAUAUGGAUGCAGUUCACAGACUAAAUGUCGGUCGGGGAAGAUGUAUUCUUCUCAUAAGAUAUAGUCGGACCUCUCCUUAAUGGGAGCUAGCGGAUGAAGUGAUGCAACACUGGAGCCGCUGGGAACUAAUUUGUAUGCGAAAGUAUAUUGAUUAGUUUUGGAGUACUCGUGGUCG
How it was run: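 Fitness was computed with DiMSum as the error-weighted combination of replicate fold changes, kanamycin versus none, each normalised to wild type. The library randomised all eight intron nucleotides of the P1ex region, with the intron placed in the knt kanamycin-resistance gene on pET-22b(+) in E. coli BL21(DE3). Six replicate transformations were grown overnight at 37°C or 30°C on LB agar with or without 25 μg/mL kanamycin, plus 100 μg/mL carbenicillin, 50 μM IPTG and 0.2% rhamnose. Pooled colonies were amplicon-sequenced on an Illumina HiSeq 2500.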

Row | Sequence | self-splicing fitness (ln) (30 °C) | self-splicing fitness (ln) (37 °C)
1 | GCUCAGCAAUAUUACGGGUA | -0.401 ± 0.077 | -0.454 ± 0.078
2 | CAAAAGCAAUAUUACGCGGU | -3.58 ± 0.2 | -2.46 ± 0.24
3 | CGCUAGCAAUAUUACGGCGA | -2.76 ± 0.28 | -2.3 ± 0.24
4 | CGUAAGCAAUAUUACGUCAA | -2.62 ± 0.26 | -1.56 ± 0.24
5 | UCAAAGCAAUAUUACGAAUA | -1.92 ± 0.43 | -1.78 ± 0.3
6 | AGACAGCAAUAUUACGUGAC | -2.89 ± 0.15 | -1.42 ± 0.13
7 | GAUAAGCAAUAUUACGGACA | -1.39 ± 0.09 | -0.559 ± 0.088
8 | CUUCAGCAAUAUUACGCGCC | -3.28 ± 0.3 | -1.92 ± 0.24
9 | GAUAAGCAAUAUUACGAUAA | -1.46 ± 0.13 | 0.344 ± 0.13
10 | CAAGAGCAAUAUUACGCGUG | -4.13 ± 0.3 | -1.6 ± 0.16
11 | AAAUAGCAAUAUUACGAAUA | -1.7 ± 0.16 | -1.18 ± 0.15
12 | GCGUAGCAAUAUUACGGCUA | -1.92 ± 0.26 | -0.79 ± 0.2
13 | CAUCAGCAAUAUUACGAAAA | – | -2.89 ± 0.28
14 | UUCGAGCAAUAUUACGAACA | -2.9 ± 0.28 | -1.73 ± 0.18
15 | UGUCAGCAAUAUUACGCGGG | -3.8 ± 0.3 | -1.73 ± 0.26
16 | CUUCAGCAAUAUUACGACAA | -2.42 ± 0.21 | -2.52 ± 0.31
17 | CACUAGCAAUAUUACGUUUA | -4.15 ± 0.23 | -2.68 ± 0.17
18 | AACCAGCAAUAUUACGUGAA | -0.843 ± 0.074 | -0.516 ± 0.087
19 | UGUUAGCAAUAUUACGCAGG | -3.96 ± 0.35 | -2.96 ± 0.25
20 | GACGAGCAAUAUUACGCCAA | -3.23 ± 0.28 | -0.956 ± 0.3
21 | AAUAAGCAAUAUUACGCUUU | -3.49 ± 0.21 | -3.26 ± 0.23

Row | Sequence | self-splicing fitness (ln) (30 °C) | self-splicing fitness (ln) (37 °C)
22 | GCUUAGCAAUAUUACGCGUA | -1.39 ± 0.16 | -1.71 ± 0.17
23 | GUGGAGCAAUAUUACGUUUG | -3.31 ± 0.26 | -2.79 ± 0.3
24 | AGUCAGCAAUAUUACGGGGA | -3.08 ± 0.19 | -1.42 ± 0.18
25 | UCCAAGCAAUAUUACGUAGG | -0.867 ± 0.06 | -0.159 ± 0.094
26 | UCUAAGCAAUAUUACGGAGA | -1.6 ± 0.22 | -1.3 ± 0.18
27 | GACGAGCAAUAUUACGUGAG | -2.7 ± 0.16 | -2.62 ± 0.19
28 | UCAGAGCAAUAUUACGUGGA | -2.49 ± 0.17 | -0.107 ± 0.12
29 | CGUUAGCAAUAUUACGAUGG | -0.465 ± 0.094 | -0.125 ± 0.13
30 | GCACAGCAAUAUUACGGGGA | -2.29 ± 0.11 | -1.5 ± 0.1
31 | UUUUAGCAAUAUUACGUUUA | -1.94 ± 0.22 | -1.05 ± 0.16
32 | GAUAAGCAAUAUUACGUGAA | -2.2 ± 0.13 | -1.63 ± 0.15
33 | CAGAAGCAAUAUUACGGGGC | -3.13 ± 0.17 | -2.89 ± 0.27
34 | ACUUAGCAAUAUUACGGACU | -0.341 ± 0.096 | 0.14 ± 0.16
35 | GGCUAGCAAUAUUACGUGGU | -3.18 ± 0.23 | -2.13 ± 0.24
36 | GUUGAGCAAUAUUACGUUCA | -2.3 ± 0.5 | -1.52 ± 0.25
37 | AGCCAGCAAUAUUACGUACG | -3.04 ± 0.17 | -2.65 ± 0.17
38 | UCCCAGCAAUAUUACGGGGU | -3.87 ± 0.27 | -2.86 ± 0.22
39 | CCCUAGCAAUAUUACGGACU | -3.48 ± 0.3 | -2 ± 0.32
40 | CCUCAGCAAUAUUACGUCCG | -1.86 ± 0.072 | -0.0776 ± 0.11
41 | UAACAGCAAUAUUACGCCUC | -2.18 ± 0.35 | -2.06 ± 0.33
42 | AUUAAGCAAUAUUACGCCAG | -2.09 ± 0.15 | -1.51 ± 0.22

Row | Sequence | self-splicing fitness (ln) (30 °C) | self-splicing fitness (ln) (37 °C)
43 | CUUCAGCAAUAUUACGUGGU | -3.25 ± 0.21 | -2.22 ± 0.24
44 | UCGUAGCAAUAUUACGGCCG | -1.51 ± 0.36 | -0.102 ± 0.27
45 | CUCCAGCAAUAUUACGUCCG | -2.63 ± 0.11 | -1.73 ± 0.12
46 | UCCUAGCAAUAUUACGGUUA | – | -2.54 ± 0.31
47 | GUAUAGCAAUAUUACGCAAC | -2.53 ± 0.37 | –
48 | CGGAAGCAAUAUUACGUUCC | -2.32 ± 0.48 | –
49 | CCGCAGCAAUAUUACGUACG | -0.247 ± 0.058 | 0.254 ± 0.069
50 | UCUCAGCAAUAUUACGCUAG | -2.76 ± 0.25 | -1.8 ± 0.25
51 | AGUGAGCAAUAUUACGGACU | -1.28 ± 0.12 | -0.761 ± 0.13
52 | UCCGAGCAAUAUUACGGUUC | -3.78 ± 0.39 | -3.02 ± 0.31
53 | CUUGAGCAAUAUUACGUUUG | -3.1 ± 0.16 | -2.26 ± 0.18
54 | CAUCAGCAAUAUUACGUAAG | -0.0494 ± 0.068 | 0.711 ± 0.092
55 | UACCAGCAAUAUUACGAGGG | -3.38 ± 0.2 | -1.3 ± 0.12
56 | CUCGAGCAAUAUUACGCGGC | -3.35 ± 0.47 | -3.16 ± 0.4
57 | AUCCAGCAAUAUUACGUACC | -2 ± 0.17 | -0.552 ± 0.32
58 | CAUCAGCAAUAUUACGUCGG | -0.265 ± 0.055 | -0.317 ± 0.076
59 | ACGUAGCAAUAUUACGACUA | -0.558 ± 0.15 | 0.529 ± 0.18
60 | UCUAAGCAAUAUUACGGCUA | -1.86 ± 0.27 | -3.14 ± 0.47
61 | AGACAGCAAUAUUACGCACA | -0.582 ± 0.079 | -0.0964 ± 0.099
